Results: paper PMC11761524 (bioRxiv, 2025)

Legend:
[1] = target: strep-Cyclin F (1–546)-GST-Skp1 (1–163) (human) (UniProt P41002); experiment: fluorescence polarisation
GST-Cyclin A (173–432) = GST-Cyclin A (173–432) (UniProt P20248); experiment: fluorescence polarisation
CDC6 = experiment: Coimmunoprecipitation of Flag-Cyclin F with endogenous CDC6 in HEK293T cells; assay type: cell-based; conditions: anti-Flag IP, Western blot, vs WT Cyclin F
CP110 = experiment: Coimmunoprecipitation of Flag-Cyclin F with endogenous CP110 in HEK293T cells; assay type: cell-based; conditions: anti-Flag IP, Western blot, vs WT Cyclin F

Chain of UniProt P20248 (P20248 173-432): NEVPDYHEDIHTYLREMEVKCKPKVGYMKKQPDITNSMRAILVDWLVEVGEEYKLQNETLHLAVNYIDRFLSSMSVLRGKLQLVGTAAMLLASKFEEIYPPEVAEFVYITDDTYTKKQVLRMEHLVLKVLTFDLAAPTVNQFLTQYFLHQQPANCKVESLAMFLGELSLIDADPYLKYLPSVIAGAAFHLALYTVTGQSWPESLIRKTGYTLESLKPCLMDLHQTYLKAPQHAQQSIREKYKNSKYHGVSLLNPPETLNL

Molecule	fold decrease in affinity against the wild-type E2F1 peptide [1]	fold decrease in affinity against the wild-type E2F1 peptide (GST-Cyclin A (173–432))	association with CDC6 (coimmunoprecipitation) (CDC6)	association with CP110 (coimmunoprecipitation) (CP110)
E2F1 peptide D93R (unlabeled) (from UniProt Q01094 84-99)	3 fold	3 fold		
E2F1 peptide K89E (unlabeled) (from UniProt Q01094 84-99)	24 fold	48 fold		
E2F1 peptide R91E (unlabeled) (from UniProt Q01094 84-99)	41 fold	12 fold		
E2F1 peptide V88E (unlabeled) (from UniProt Q01094 84-99)	31 fold	460 fold		
Cyclin F loop mutant: Flag-Cyclin F mutant containing D504-T511 all changed to alanine (protein, left off: Flag, end not stated, kept) MGSGGVVHCRCAKCFCYPTKRRIRRRPRNLTILSLPEDVLFHILKWLSVEDILAVRAVHSQLKDLVDNHASVWACASFQELWPSPGNLKLFERAAEKGNFEAAVKLGIAYLYNEGLSVSDEARAEVNGLKASRFFSLAERLNVGAAPFIWLFIRPPWSVSGSCCKAVVHESLRAECQLQRTHKASILHCLGRVLSLFEDEEKQQQAHDLFEEAAHQGCLTSSYLLWESDRRTDVSDPGRCLHSFRKLRDYAAKGCWEAQLSLAKACANANQLGLEVRASSEIVCQLFQASQAVSKQQVFSVQKGLNDTMRYILIDWLVEVATMKDFTSLCLHLTVECVDRYLRRRLVPRYRLQLLGIACMVICTRFISKEILTIREAVWLTDNTYKYEDLVRMMGEIVSALEGKIRVPTVVDYKEVLLTLVPVELRTQHLCSFLCELSLLHTSLSAYAPARLAAAALLLARLTHGQTQPWTTQLWDLTGFSYEDLIPCVLSLHKKCFHDDAPKAAAAAAAAAVKQRFEDKRYGEISQEEVLSYSQLCAALGVTQDSPDPPTFLSTGEIHAFLSSPSGRRTKRKRENSLQEDRGSFVTTPTAELSSQEETLLGSFLDWSLDCCSGYEGDQESEGEKEGDVTAPSGILDVTVVYLNPEQHCCQESSDEEACPEDKGPQDPQALALDTQIPATPGPKPLVRTSREPGKDVTTSGYSSVSTASPTSSVDGGLGALPQPTSVLSLDSDSHTQPCHHQARKSCLQCRPPSPPESSVPQQQVKRINLCIHSEEEDMNLGLVRL			weaker association was more apparent	weaker association was more apparent
